# Reference: patent publication US20140227729
# T1: Ndm, two-subunit N-demethylase component purified from Pseudomonas putida CBB5 (UniProt H9N289)
# T1 sequence 1: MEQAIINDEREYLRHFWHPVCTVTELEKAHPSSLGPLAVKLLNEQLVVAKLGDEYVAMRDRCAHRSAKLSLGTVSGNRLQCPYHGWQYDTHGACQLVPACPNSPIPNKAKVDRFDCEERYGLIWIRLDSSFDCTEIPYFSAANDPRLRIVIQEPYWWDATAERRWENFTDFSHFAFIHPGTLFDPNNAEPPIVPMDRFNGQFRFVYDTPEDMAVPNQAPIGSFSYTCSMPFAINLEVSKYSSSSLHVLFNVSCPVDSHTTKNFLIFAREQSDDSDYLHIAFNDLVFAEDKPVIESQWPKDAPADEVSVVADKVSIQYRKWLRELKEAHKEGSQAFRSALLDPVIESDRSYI
# T1 sequence 2: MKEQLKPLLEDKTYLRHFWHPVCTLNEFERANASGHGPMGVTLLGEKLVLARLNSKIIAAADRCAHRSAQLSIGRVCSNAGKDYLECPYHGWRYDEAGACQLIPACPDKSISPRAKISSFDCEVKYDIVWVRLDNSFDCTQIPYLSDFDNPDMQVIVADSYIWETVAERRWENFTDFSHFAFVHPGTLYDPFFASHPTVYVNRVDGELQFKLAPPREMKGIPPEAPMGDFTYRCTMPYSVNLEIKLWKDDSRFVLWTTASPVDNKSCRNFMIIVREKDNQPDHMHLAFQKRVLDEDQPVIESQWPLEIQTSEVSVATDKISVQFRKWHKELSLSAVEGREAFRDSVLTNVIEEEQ
# T2: Ndm, two-subunit N-demethylase component purified from Pseudomonas putida CBB5, H9N289
# T2 chain 1: T1 sequence 1
# T2 chain 2: T1 sequence 2
# T3: NdmA-His6, H9N289
# T3 chain: T1 sequence 1
# T4: NdmB-His6, H9N290
# T4 chain: T1 sequence 2
# B1: Reductase of Pseudomonas sp. 9816 naphthalene dioxygenase (protein)
# chain: MELLIQPNNRIIPFSAGANLLEVLRENGVAISYSCLSGRCGTCRCRVIDGSVIDSGAENGQSNLTDKQYVLACQSVLTGNCAIEVPEADEIVTHPARIIKGTVVAVESPTHDIRRLRVRLSKPFEFSPGQYATLQFSPEHARPYSMAGLPDDQEMEFHIRKVPGGRVTEYVFEHVREGTSIKLSGPLGTAYLRQKHTGPMLCVGGGTGLAPVLSIVRGALKSGMTNPILLYFGVRSQQDLYDAERLHKLAADHPQLTVHTVIATGPINEGQRAGLITDVIEKDILSLAGWRAYLCGAPAMVEALCTVTKHLGISPEHIYADAFYPGGI
# B2: Spinach ferredoxin reductase (protein)
# chain: QIASDVEAPPPAPAKVEKHSKKMEEGITVNKFKPKTPYVGRCLLNTKITGDDAPGETWHMVFSHEGEIPYREGQSVGVIPDGEDKNGKPHKLRLYSIASSALGDFGDAKSVSLCVKRLIYTNDAGETIKGVCSNFLCDLKPGAEVKLTGPVGKEMLMPKDPNATIIMLGTGTGIAPFRSFLWKMFFEKHDDYKFNGLAWLFLGVPTSSSLLYKEEFEKMKEKAPDNFRLDFAVSREQTNEKGEKMYIQTRMAQYAVELWEMLKKDNTYFYMCGLKGMEKGIDDIMVSLAAAEGIDWIEYKRQLKKAEQWNVEVY
# B3: His6-NdmD (protein)
# chain: HHHHHHSSGLVPRGSHMNKLDVNQWFPIATTEDLPKRHVFHATLLGQEMAIWRDDSGSVNAWENRCPHRGLNTLGANTGNELRCQYHGWTYESGTGGCTFVPAHRDAPPPNAARVNTFPVREKHGFIWTTLGQPPGEPISILDDAQLVNAVKTNLHSVVIDADIDGVVSVLRQNLSAFIDVFGAASAEDLHLKSMLQDRGILVTRSGSIAIHFYMQRSTISKCVVHAQVLTPGRPGYELQKNYSYAMNVIRRAAEAVATDLISITDISDQTIEKLEVVRENMTKAPPTHYICEVVTRTQETGDINSYWLKPIGYPLPAFSPGMHISITTPEGSIRQYSLVNGPDERESFIIGVKKEIGSRGGSRSMHEDVKVGTQLKVTLPRNGFPLVQTRKHPILVAGGIGITPILCMAGALDQQGSSYEIHYFARAFEHVPFQDRLTALGDRLNVHLGLGPDETRAKLPDIMEIHNAQDVDVYTCGPQPMIETVSAVALAHGIAEESIRFEFFSKKNDVPVSDEEYEVELKKTGQIFTVSPGSTLLQACLDNDVRIEASCEQGVCGTCITPVVSGDLEHHDTYLSKKERESGKWIMPCVSRCKSKKIVLDL
# Legend:
# [1] = molecular target: T1, Ndm, two-subunit N-demethylase component purified from Pseudomonas putida CBB5
# [2] = molecular target: T2, Ndm, two-subunit N-demethylase …
# NdmA-His6, H9N289 = molecular target: T3, NdmA-His6, H9N289
# NdmB-His6, H9N290 = molecular target: T4, NdmB-His6, H9N290
molecule,measurement,setting,value
"Ccr, reductase component with cytochrome c reductase activity (partially purified fraction from Pseudomonas putida CBB5)",N-demethylase activity,[1],No N-demethylase activity was observed when purified Ndm was assayed without the Ccr fraction
B1,N-demethylase activity,[2],Ndm did not function in the presence of the reductase and ferredoxin components of Pseudomonas sp. 9816 naphthalene dioxygenase
B2,N-demethylase activity,[2],Ndm did not couple with ferredoxin reductase plus ferredoxin from spinach
B3,N-demethylation of caffeine to theobromine (HPLC),"NdmA-His6, H9N289","when NdmA-His6 was incubated with His6-NdmD, caffeine, NADH, and exogenous Fe^2+, caffeine was stoichiometrically demethylated at N1 to theobromine"
same,N-demethylation of theobromine to 7-methylxanthine (HPLC),"NdmB-His6, H9N290","NdmB-His6 with His6-NdmD, theobromine, NADH, and Fe^2+ resulted in stoichiometric demethylation at N3 of theobromine to 7-methylxanthine"
